Measured values as given in publication PMC5225067.

Target: AD-Myo5 [S. cerevisiae]
Assay: yeast two-hybrid (β-galactosidase activity)
Conditions: read off a plot

In the case of “She4-BD, wild type mutant S18E [S. cerevisiae] / AD-Myo5 [S. cerevisiae] chain 1 S18E”, the response (25 °C (no heat shock)) is reported as 0.075 mU and the response (39 °C (heat shock)) is reported as 0.17 mU.
“human BD-UNC45-SM, wild type mutant S251A [human] / AD-Myo5 [S. cerevisiae] chain 1 S251A” showed a response (25 °C (no heat shock)) of 0.79 mU and a response (39 °C (heat shock)) of 1 mU.
In the case of “human BD-UNC45-SM, wild type mutant S251E [human] / AD-Myo5 [S. cerevisiae] chain 1 S251E”, the response (25 °C (no heat shock)) is reported as 0.29 mU and the response (39 °C (heat shock)) is reported as 0.52 mU.
Substance “She4-BD, wild type mutant S18A [S. cerevisiae] / AD-Myo5 [S. cerevisiae] chain 1 S18A” has a response (25 °C (no heat shock)) of 0.34 mU and a response (39 °C (heat shock)) of 0.45 mU.
